From US20260055186A1 (REPERTOIRE IMMUNE MEDICINES, published 2026) come the findings set out here.

One assay deals with T1, mouse CD8 on mouse cells (mouse, UniProt P01731 28-247).
T1 construct: whole, on cells; also called mCD8
The experiment in a line: flow cytometry of peripheral blood, B16-F10-bearing mice, 4 days after the first dose (in vivo). On the procedure: Mice were injected weekly for a total of 4 doses, at a dose equivalent to 10 μg of recombinant IL12. Tumor volume was measured twice per week, and mice were euthanized if tumor volume exceeded 2000 mm³. […] Specifically, in the MC38 model, treatment with the CD8IgG-IL12 (LC) Clone 2 construct controlled tumor growth up to day 21 and yielded 3/8 complete responders, whereas treatment with the CD8IgG-IL12 (1× HC) construct controlled tumor growth for the entire duration of the study and yielded 7/8 complete responders (FIGS. 6A-6C). In the B16-F10 model, which is typically less responsive to immunotherapy, both constructs limited tumor growth for up to 14 days after the initial dose (FIGS. 7A-7C).
In the same study, the two anti-CD8:IL-12 fusion constructs were also evaluated for their ability to be retained in tissues. Peripheral blood cells were collected from MC38 and B16-F10 tumor-bearing mice 4 days after administration of the first dose of the IL-12 construct. Samples were analyzed by flow cytometry. In the case of the MC38 tumor-bearing mice, IL-12 was detected on the surface of CD8+ T cells 4 days post-treatment with either of the two anti-CD8:IL-12 fusion protein constructs, but not on the surface of CD4+ T cells or NK cells (FIG. 8A). […]
On the technique in general: In flow cytometry, cells or beads pass a laser one at a time.

Assay [1] has as its target T2, human CD8 on human T cells (human, UniProt P01732 22-235).
T2 construct: whole, on cells; the antibodies were raised against human CD8 alpha; also called CD8 on human CD8+ T cells; hCD8
The experiment in a line: flow cytometry, CD8+ T cells in human PBMCs, 30 min 37 °C, anti-IL-12p40. On the procedure: (§1) Fusion proteins H6K3-IgG-IL12 (LC) and H6K3-IgG-IL12 (1×HC) were also evaluated for their ability to bind CD8-expressing cells in human and cynomolgus monkey PBMCs. Briefly, 5×10⁴ human PBMCs (StemCell Technologies) or cynomolgus monkey PBMCs (iQ Biosciences) were incubated with 7 serial 5-fold dilutions of one of the two aforementioned H6K3-IgG-IL12 constructs for 30 minutes at 37° C. Cells were washed twice with MACS buffer and stained with viability dye and fluorophore-conjugated antibodies against IL-12 and cell-surface markers for 20 minutes at 4° C. Cells were analyzed on a FACSCelesta using Diva software (BD Biosciences). Binding activity for all treatments was quantified and represented as the mean fluorescence intensity values of IL-12 on human CD8+ T cells and NK cells (FIGS. 17A-17B) and on cynomolgus monkey CD8+ T cells and NK cells (FIGS. 17C-17D). For the H6K3-IgG-IL12 (LC) treatments, results are also reported as the frequency of IL-12+CD8+ T cells and NK cells (FIG. 17E). As shown in FIGS. 17A-17D, both H6K3-IgG-IL12 (LC) and H6K3-IgG-IL12 (1×HC) were able to selectively bind human CD8+ T cells over NK cells at a range of concentrations. […] Where the cells were incubated with 0.128 nM of the IL-12 fusion constructs, the number of live CD45+ cells staining as CD8+ and IL-12 were assessed by flow cytometry. […]

Assay [2] deals with T2, human CD8 on human T cells. The experiment in a line: cell-based or functional assay.
Assay [3] concerns the target T3, cynomolgus monkey CD8 on cynomolgus cells (cynomolgus monkey).
T3 construct: whole, on cells; also called cynomolgus CD8
Put plainly: flow cytometry, NK cells in cynomolgus PBMCs (CD8-expressing by paragraph 442), 30 min 37 °C, anti-IL-12p40. On the procedure: as §1

The target of assay [4] is T2, human CD8 on human T cells. Put plainly: flow cytometry, CD8+ T cells in human PBMCs, 30 min 37 °C, anti-human IL-12 AF647. As to the method: Fusion proteins H6K3-IgG-IL12 (LC) and H6K3-IgG-IL12 (1×HC) were evaluated for their ability to selectively bind human CD8+ T cells in PBMCs. Briefly, 5×10⁴ human PBMCs (StemCell Technologies) were incubated with 7 serial 5-fold dilutions of one of the two aforementioned H6K3-IgG-IL12 constructs for 30 minutes at 37° C. Cells were washed twice with MACS buffer and stained for 20 minutes at 4° C. with fluorophore-conjugated anti-CD3, anti-CD4, anti-CD8, anti-CD56, and anti-IL12 antibodies, and viability dye. Cells were analyzed on a FACSCelesta using Diva software (BD Biosciences). Binding activity was quantified and represented as the mean fluorescent intensity values of IL-12 on either CD8+ T cells or NK Cells. As shown in FIGS. 16A-16B, both H6K3-IgG-IL12 (LC) and H6K3-IgG-IL12 (1×HC) were able to selectively bind human CD8+ T cells over NK cells at a range of concentrations.

In assay [5] the target is T3, cynomolgus monkey CD8 on cynomolgus …. The experiment in a line: cell-based or functional assay.
Assay [6] has the same target. Put plainly: flow cytometry, CD8+ T cells in cynomolgus PBMCs, 30 min 37 °C, anti-IL-12p40. On the procedure: as §1

T2 sequence (P01732 22-235): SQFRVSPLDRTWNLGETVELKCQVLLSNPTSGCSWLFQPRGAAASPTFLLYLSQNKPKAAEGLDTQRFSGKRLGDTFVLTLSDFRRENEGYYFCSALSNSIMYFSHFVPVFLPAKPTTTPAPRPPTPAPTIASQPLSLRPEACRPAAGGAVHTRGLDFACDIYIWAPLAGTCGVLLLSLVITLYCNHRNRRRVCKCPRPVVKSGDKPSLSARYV
T1 sequence (P01731 28-247): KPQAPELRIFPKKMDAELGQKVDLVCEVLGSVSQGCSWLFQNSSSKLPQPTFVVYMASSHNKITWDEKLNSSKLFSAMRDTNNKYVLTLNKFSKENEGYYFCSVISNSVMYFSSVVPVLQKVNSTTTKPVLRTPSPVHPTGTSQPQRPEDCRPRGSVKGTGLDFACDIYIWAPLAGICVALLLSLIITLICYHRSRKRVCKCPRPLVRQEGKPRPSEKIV

B1: rIL-12 (ligand)
alpha: RVIPVSGPARCLSQSRNLLKTTDDMVKTAREKLKHYSCTAEDIDHEDITRDQTSTLKTCLPLELHKNESCLATRETSSTTRGSCLPPQKTSLMMTLCLGSIYEDLKMYQTEFQAINAALQNHNHQQIILDKGMLVAIDELMQSLNHNGETLRQKPPVGEADPYRVKMKLCILLHAFSTRVVTINRVMGYLSSA
beta: MWELEKDVYVVEVDWTPDAPGETVNLTCDTPEEDDITWTSDQRHGVIGSGKTLTITVKEFLDAGQYTCHKGGETLSHSHLLLHKKENGIWSTEILKNFKNKTFLKCEAPNYSGRFTCSWLVQRNMDLKFNIKSSSSSPDSRAVTCGMASLSAEKVTLDQRDYEKYSVSCQEDVTCPTAEETLPIELALEARQQNKYENYSTSFFIRDIIKPDPPKNLQMKPLKNSQVEVSWEYPDSWSTPHSYFSLKFFVRIQRKKEKMKETEEGCNQKGAFLVEKTSTEVQCKGGNVCVQAQDRYYNSSCSKWACVPCRVRS
notes: untargeted control; also called rmIL-12; non-targeted recombinant mouse IL-12; copies: 1 + 1
As for B1, the binding result with mouse CD8 on mouse cells is reported as “no binding (tested: dose equivalent to 10 µg IL-12, i.v.)”.

B2: H6K3-IgG-IL12 (1×HC) (other)
VH: EVQLVQSGAEVKKPGATVKISCKASGYTFTDFTMHWVQQAPGKGLEWIGLVNPNNGGNIYAEKFQGRVTLTVDTSTSTAYMELSSLRSEDTAVYYCGRVPLYTSHGMDYWGQGTLVTVSS
VL: EIVLTQSPATLSLSPGERATISCRASESVDSYDINSMHWYQQKPGQAPRLLIYRASHLQSGIPARFSGSGSRTDFTLTISSLEPEDFATYYCQQSNEDPLTFGQGTKLEIK
notes: Humanized 02A01 VH6/VK3 IgG1 with one human IL-12p70 on the C-terminus of the knob heavy chain; Fc with L234A, L235A, P329G, N297A and T366W / T366S, L368A, Y407V; not tied to this name; also called hCD8IgG-1×IL12 (HC); hCD8IgG-IL12 (1 × HC)
As a reminder, the EC50 (read off the curve) is the concentration giving half of the maximal effect. In the case of B2, the “EC50 (read off the curve)” value was about 50 pM in assay [1], about 100 pM in assay [3], about 60 pM in assay [4] and about 50 pM in assay [6]. For the same molecule, the “EC50 of pSTAT4 signaling in human CD8+ T cells” value in assay [2] was 2.3 pM. Also, in assay [5], the “EC50 of pSTAT4 signaling in cynomolgus CD8+ T cells” value was found to be 2.3 pM. Also, in assay [5], the “EC50 of pSTAT4 signaling in cynomolgus NK cells” value came out at 2 pM.

B3: H6K3-IgG-IL12 (LC) (other)
VH: EVQLVQSGAEVKKPGATVKISCKASGYTFTDFTMHWVQQAPGKGLEWIGLVNPNNGGNIYAEKFQGRVTLTVDTSTSTAYMELSSLRSEDTAVYYCGRVPLYTSHGMDYWGQGTLVTVSS
VL: EIVLTQSPATLSLSPGERATISCRASESVDSYDINSMHWYQQKPGQAPRLLIYRASHLQSGIPARFSGSGSRTDFTLTISSLEPEDFATYYCQQSNEDPLTFGQGTKLEIK
notes: Humanized 02A01 VH6/VK3 IgG1 with human IL-12p70 on each light chain C-terminus; Fc with L234A, L235A, P329G, N297A; not tied to this name; also called hCD8IgG-IL12 (LC)
Consider B3, for which the half-maximal effective concentration (EC50 (read off the curve)) is about 30 pM in assay [1], about 40 pM in assay [4] and about 50 pM in assay [6]. Further, in assay [2], the “EC50 of pSTAT4 signaling in human CD8+ T cells” value turned out to be 3.3 pM. Also, the “EC50 of pSTAT4 signaling in cynomolgus CD8+ T cells” value in assay [5] came to 1.8 pM. For the same molecule, the “EC50 of pSTAT4 signaling in cynomolgus NK cells” value in assay [5] is 2.4 pM.
